The supplement of paper PMC5998384

What was measured:
HeLa Kyoto [1] = assay: solubility in G1/S (NP-40 vs SDS abundance) (log2 ratio); higher = more soluble; settings: cell cycle stage: G1/S
HeLa Kyoto [2] = assay: melting temperature (median over replicates), in situ; higher = more thermally stable
HeLa Kyoto [3] = assay: solubility change mitosis vs G1/S (difference of NP-40 vs SDS log2 ratios) (log2 ratio difference); higher = more soluble in mitosis
HeLa Kyoto [4] = assay: thermal stability score vs G1/S (z-score of summed log2 fold changes over temperatures); higher = more thermally stable than in G1/S
[5] = cell cycle stage: early G1 (4.5 h after nocodazole release)
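Throughout, for melting temperature (median over replicates), in situ: HeLa Kyoto cells synchronized by double thymidine or nocodazole block, proteins quantified by TMT10plex mass spectrometry, three independent biological replicates.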
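Throughout, for solubility change mitosis vs G1/S (difference of NP-40 vs SDS log2 ratios): synchronized HeLa Kyoto cells (double thymidine block for G1/S, nocodazole release for mitosis), protein amounts in NP-40 versus SDS lysates quantified by mass spectrometry, three biological replicates.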
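Throughout, for solubility in G1/S (NP-40 vs SDS abundance): HeLa Kyoto cells arrested at G1/S by double thymidine block, proteins quantified by TMT10plex mass spectrometry in mild NP-40 versus SDS extracts, three biological replicates.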
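Throughout, for thermal stability score vs G1/S (z-score of summed log2 fold changes over temperatures): synchronized HeLa Kyoto cells, proteins quantified by TMT10plex mass spectrometry, three biological replicates, mitosis taken 0.5 h after nocodazole release, G1/S directly after double thymidine block.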

| Sequence | solubility in G1/S (log2) (HeLa Kyoto [1]) | melting temperature (HeLa Kyoto [2]; cell cycle stage: G1/S) | melting temperature (HeLa Kyoto [2]; cell cycle stage: mitosis) | solubility change mitosis (log2) (HeLa Kyoto [3]) | thermal stability score (HeLa Kyoto [4]; [5]) | thermal stability score (HeLa Kyoto [4]; cell cycle stage: mitosis) |
| --- | --- | --- | --- | --- | --- | --- |
| MSGPVPSRARVYTDVNTHRPREYWDYESHVVEWGNQDDYQLVRKLGRGKYSEVFEAINITNNEKVVVKILKPVKKKKIKREIKILENLRGGPNIITLADIVKDPVSRTPALVFEHVNNTDFKQLYQTLTDYDIRFYMYEILKALDYCHSMGIMHRDVKPHNVMIDHEHRKLRLIDWGLAEFYHPGQEYNVRVASRYFKGPELLVDYQMYDYSLDMWSLGCMLASMIFRKEPFFHGHDNYDQLVRIAKVLGTEDLYDYIDKYNIELDPRFNDILGRHSRKRWERFVHSENQHLVSPEALDFLDKLLRYDHQSRLTAREAMEHPYFYTVVKDQARMGSSSMPGGSTPVSSANMMSGISSVPTPSPLGPLAGSPVIAAANPLGMPVPAAAGAQQ [CSNK2A1] | -0.00675 | 51.5 °C | 50.7 °C | 0.0535 | 1.11 | 1.31 |
| MADSGLLLKRGSCRSTWLRVRKARPQLILSRRPRRRLGSLRWCGRRRLRWRLLQAQASGVDWREGARQVSRAAAARRPNTATPSPIPSPTPASEPESEPELESASSCHRPLLIPPVRPVGPGRALLLLPVEQGFTFSGICRVTCLYGQVQVFGFTISQGQPAQDIFSVYTHSCLSIHALHYSQPEKSKKELKREARNLLKSHLNLDDRRWSMQNFSPQCSIVLLEHLKTATVNFITSYPGSSYIFVQESPTPQIKPEYLALRSVGIRREKKRKGLQLTESTLSALEELVNVSCEEVDGCPVILVCGSQDVGKSTFNRYLINHLLNSLPCVDYLECDLGQTEFTPPGCISLLNITEPVLGPPFTHLRTPQKMVYYGKPSCKNNYENYIDIVKYVFSAYKRESPLIVNTMGWVSDQGLLLLIDLIRLLSPSHVVQFRSDHSKYMPDLTPQYVDDMDGLYTKSKTKMRNRRFRLAAFADALEFADEEKESPVEFTGHKLIGVYTDFAFRITPRNRESHNKILRDLSILSYLSQLQPPMPKPLSPLHSLTPYQVPFNAVALRITHSDVAPTHILYAVNASWVGLCKIQDDVRGYTNGPILLAQTPICDCLGFGICRGIDMEKRLYHILTPVPPEELRTVNCLLVGAIAIPHCVLKCQRGIEGTVPYVTTDYNFKLPGASEKIGAREPEEAHKEKPYRRPKFCRKMK [NOL9] | -1.82 | – | 51.3 °C | 0.92 | 1.99 | 1.53 |
| MDQPFTVNSLKKLAAMPDHTDVSLSPEERVRALSKLGCNITISEDITPRRYFRSGVEMERMASVYLEEGNLENAFVLYNKFITLFVEKLPNHRDYQQCAVPEKQDIMKKLKEIAFPRTDELKNDLLKKYNVEYQEYLQSKNKYKAEILKKLEHQRLIEAERKRIAQMRQQQLESEQFLFFEDQLKKQELARGQMRSQQTSGLSEQIDGSALSCFSTHQNNSLLNVFADQPNKSDATNYASHSPPVNRALTPAATLSAVQNLVVEGLRCVVLPEDLCHKFLQLAESNTVRGIETCGILCGKLTHNEFTITHVIVPKQSAGPDYCDMENVEELFNVQDQHDLLTLGWIHTHPTQTAFLSSVDLHTHCSYQLMLPEAIAIVCSPKHKDTGIFRLTNAGMLEVSACKKKGFHPHTKEPRLFSICKHVLVKDIKIIVLDLR [STAMBPL1] | -0.0141 | 50.3 °C | 51 °C | -0.137 | -0.397 | -0.032 |
| MSLMVSAGRGLGAVWSPTHVQVTVLQARGLRAKGPGGTSDAYAVIQVGKEKYATSVSERSLGAPVWREEATFELPSLLSSGPAAAATLQLTVLHRALLGLDKFLGRAEVDLRDLHRDQGRRKTQWYKLKSKPGKKDKERGEIEVDIQFMRNNMTASMFDLSMKDKSRNPFGKLKDKIKGKNKDSGSDTASAIIPSTTPSVDSDDESVVKDKKKKSKIKTLLSKSNLQKTPLSQSMSVLPTSKPEKVLLRPGDFQSQWDEDDNEDESSSASDVMSHKRTASTDLKQLNQVNFTLPKKEGLSFLGGLRSKNDVLSRSNVCINGNHVYLEQPEAKGEIKDSSPSSSPSPKGFRKKHLFSSTENLAAGSWKEPAEGGGLSSDRQLSESSTKDSLKSMTLPSYRPAPLVSGDLRENMAPANSEATKEAKESKKPESRRSSLLSLMTGKKDVAKGSEGENPLTVPGREKEGMLMGVKPGEDASGPAEDLVRRSEKDTAAVVSRQGSSLNLFEDVQITEPEAEPESKSEPRPPISSPRAPQTRAVKPRLEVSPEAQPTARLPSPTDSPSSLPPLPSSSGQASVPSELGHGADTQSSESPSVFSSLSSPIAAPISTSTPIESWPLVDRGQAKSEGPPLLPKAELQTESLTPVPNSGSSALGSLFKQPSFPANKGTEDSLMGRTRETGTEKNTSSLELEESLPEQPETGRQEEELPRFPCKKQDYSPSSGEAQEVPFALSLSSDGAVSPVGELAAGGDRDLESQAGSLVESKARDAAEEVAPPLPMGASVPSIDSMMRKLEEMGLNLRKDQKKTKKRVSFSEQLFTEEAVAGAALLVEGHSSCPQELNPAWSVAGNASDGEPPESPHAEDSERESVTTPGPATCGAPASPADHLLLPSQEESFSEVPMSEASSAKDTPLFRMEGEDALVTQYQSKASDHEGLLSDPLSDLQLVSDFKSPIMADLNLSLPSIPEVASDDERIDQVEDDGDQVEDDGETAKSSTLDIGALSLGLVVPCPERGKGPSGEADRLVLGEGLCDFRLQAPQASVTAPSEQTTEFGIHKPHLGKSSSLDKQLPGPSGGEEEKPMGNGSPSPPPGTSLDNPVPSPSPSEIFPVTHSFPSSAHSDTHHTSTAESQKKATAEGSAGRVENFGKRKPLLQAWVSPSETHPVSAQPGAGTGSAKHRLHPVKPMNAMATKVANCSLGTATIISENLNNEVMMKKYSPSDPAFAYAQLTHDELIQLVLKQKETISKKEFQVRELEDYIDNLLVRVMEETPNILRIPTQVGKKAGKM [RAB11FIP1] | 0.306 | 51 °C | 50.1 °C | -0.196 | 0.112 | 0.383 |
| MLSVRVAAAVVRALPRRAGLVSRNALGSSFIAARNFHASNTHLQKTGTAEMSSILEERILGADTSVDLEETGRVLSIGDGIARVHGLRNVQAEEMVEFSSGLKGMSLNLEPDNVGVVVFGNDKLIKEGDIVKRTGAIVDVPVGEELLGRVVDALGNAIDGKGPIGSKTRRRVGLKAPGIIPRISVREPMQTGIKAVDSLVPIGRGQRELIIGDRQTGKTSIAIDTIINQKRFNDGSDEKKKLYCIYVAIGQKRSTVAQLVKRLTDADAMKYTIVVSATASDAAPLQYLAPYSGCSMGEYFRDNGKHALIIYDDLSKQAVAYRQMSLLLRRPPGREAYPGDVFYLHSRLLERAAKMNDAFGGGSLTALPVIETQAGDVSAYIPTNVISITDGQIFLETELFYKGIRPAINVGLSVSRVGSAAQTRAMKQVAGTMKLELAQYREVAAFAQFGSDLDAATQQLLSRGVRLTELLKQGQYSPMAIEEQVAVIYAGVRGYLDKLEPSKITKFENAFLSHVVSQHQALLGTIRADGKISEQSDAKLKEIVTNFLAGFEA [ATP5A1] | 0.231 | 59.9 °C | 58.9 °C | -0.0479 | -1.58 | -1.35 |
| MDLNSASTVVLQVLTQATSQDTAVLKPAEEQLKQWETQPGFYSVLLNIFTNHTLDINVRWLAVLYFKHGIDRYWRRVAPHALSEEEKTTLRAGLITNFNEPINQIATQIAVLIAKVARLDCPRQWPELIPTLIESVKVQDDLRQHRALLTFYHVTKTLASKRLAADRKLFYDLASGIYNFACSLWNHHTDTFLQEVSSGNEAAILSSLERTLLSLKVLRKLTVNGFVEPHKNMEVMGFLHGIFERLKQFLECSRSIGTDNVCRDRLEKTIILFTKVLLDFLDQHPFSFTPLIQRSLEFSVSYVFTEVGEGVTFERFIVQCMNLIKMIVKNYAYKPSKNFEDSSPETLEAHKIKMAFFTYPTLTEICRRLVSHYFLLTEEELTMWEEDPEGFTVEETGGDSWKYSLRPCTEVLFIDIFHEYNQTLTPVLLEMMQTLQGPTNVEDMNALLIKDAVYNAVGLAAYELFDSVDFDQWFKNQLLPELQVIHNRYKPLRRRVIWLIGQWISVKFKSDLRPMLYEAICNLLQDQDLVVRIETATTLKLTVDDFEFRTDQFLPYLETMFTLLFQLLQQVTECDTKMHVLHVLSCVIERVNMQIRPYVGCLVQYLPLLWKQSEEHNMLRCAILTTLIHLVQGLGADSKNLYPFLLPVIQLSTDVSQPPHVYLLEDGLELWLVTLENSPCITPELLRIFQNMSPLLELSSENLRTCFKIINGYIFLSSTEFLQTYAVGLCQSFCELLKEITTEGQVQVLKVVENALKVNPILGPQMFQPILPYVFKGIIEGERYPVVMSTYLGVMGRVLLQNTSFFSSLLNEMAHKFNQEMDQLLGNMIEMWVDRMDNITQPERRKLSALALLSLLPSDNSVIQDKFCGIINISVEGLHDVMTEDPETGTYKDCMLMSHLEEPKVTEDEEPPTEQDKRKKMLALKDPVHTVSLQQFIYEKLKAQQEMLGEQGFQSLMETVDTEIVTQLQEFLQGF [IPO11] | -0.209 | 51.5 °C | 50.8 °C | -0.25 | 1.33 | 0.273 |
| MVLLHVLFEHAVGYALLALKEVEEISLLQPQVEESVLNLGKFHSIVRLVAFCPFASSQVALENANAVSEGVVHEDLRLLLETHLPSKKKKVLLGVGDPKIGAAIQEELGYNCQTGGVIAEILRGVRLHFHNLVKGLTDLSACKAQLGLGHSYSRAKVKFNVNRVDNMIIQSISLLDQLDKDINTFSMRVREWYGYHFPELVKIINDNATYCRLAQFIGNRRELNEDKLEKLEELTMDGAKAKAILDASRSSMGMDISAIDLINIESFSSRVVSLSEYRQSLHTYLRSKMSQVAPSLSALIGEAVGARLIAHAGSLTNLAKYPASTVQILGAEKALFRALKTRGNTPKYGLIFHSTFIGRAAAKNKGRISRYLANKCSIASRIDCFSEVPTSVFGEKLREQVEERLSFYETGEIPRKNLDVMKEAMVQAEEAAAEITRKLEKQEKKRLKKEKKRLAALALASSENSSSTPEECEEMSEKPKKKKKQKPQEVPQENGMEDPSISFSKPKKKKSFSKEELMSSDLEETAGSTSIPKRKKSTPKEETVNDPEEAGHRSGSKKKRKFSKEEPVSSGPEEAVGKSSSKKKKKFHKASQED [NOP56] | -2.05 | 54.6 °C | 52 °C | 1.28 | -2.17 | -6.89 |
| MIPNGYLMFEDENFIESSVAKLNALRKSGQFCDVRLQVCGHEMLAHRAVLACCSPYLFEIFNSDSDPHGISHVKFDDLNPEAVEVLLNYAYTAQLKADKELVKDVYSAAKKLKMDRVKQVCGDYLLSRMDVTSCISYRNFASCMGDSRLLNKVDAYIQEHLLQISEEEEFLKLPRLKLEVMLEDNVCLPSNGKLYTKVINWVQRSIWENGDSLEELMEEVQTLYYSADHKLLDGNLLDGQAEVFGSDDDHIQFVQKKPPRENGHKQISSSSTGCLSSPNATVQSPKHEWKIVASEKTSNNTYLCLAVLDGIFCVIFLHGRNSPQSSPTSTPKLSKSLSFEMQQDELIEKPMSPMQYARSGLGTAEMNGKLIAAGGYNREECLRTVECYNPHTDHWSFLAPMRTPRARFQMAVLMGQLYVVGGSNGHSDDLSCGEMYDSNIDDWIPVPELRTNRCNAGVCALNGKLYIVGGSDPYGQKGLKNCDVFDPVTKLWTSCAPLNIRRHQSAVCELGGYLYIIGGAESWNCLNTVERYNPENNTWTLIAPMNVARRGAGVAVLNGKLFVCGGFDGSHAISCVEMYDPTRNEWKMMGNMTSPRSNAGIATVGNTIYAVGGFDGNEFLNTVEVYNLESNEWSPYTKIFQF [IVNS1ABP] | -0.0792 | 50.7 °C | 49.2 °C | -0.0597 | -2.78 | -1.82 |
| MMIHGFQSSHRDFCFGPWKLTASKTHIMKSADVEKLADELHMPSLPEMMFGDNVLRIQHGSGFGIEFNATDALRCVNNYQGMLKVACAEEWQESRTEGEHSKEVIKPYDWTYTTDYKGTLLGESLKLKVVPTTDHIDTEKLKAREQIKFFEEVLLFEDELHDHGVSSLSVKIRVMPSSFFLLLRFFLRIDGVLIRMNDTRLYHEADKTYMLREYTSRESKISSLMHVPPSLFTEPNEISQYLPIKEAVCEKLIFPERIDPNPADSQKSTQVE [TIPRL] | 0.0228 | 50.8 °C | 51.3 °C | -0.0696 | -0.544 | -1.01 |
